According to paper PMC4882579, “Disclosing the essentiality of ribose-5-phosphate isomerase B in Trypanosomatids” (Scientific Reports, 2016):

Substrate: O=C(CO)[C@H](O)[C@H](O)COP(=O)(O)O
Assay: purified protein, by the assay type
Design: Recombinant RPIB isomerase kinetics, R5P to Ru5P (direct) or Ru5P to R5P (reverse)
From the text: LiRPIB and LmRPIB recombinant proteins, containing a 6-histidine N-terminal tag, were expressed in Escherichia coli and purified by affinity chromatography under native conditions. Coomassie blue is represented in Fig. 1b, showing that both proteins have the predicted MW for the monomer (LiRPIB ~20.83, LmRPIB ~20.78 kDa). […] Additionally, recombinant LiRPIB was used to immunise rabbits to produce polyclonal anti-LiRPIB antibodies. Those antibodies recognise the recombinant protein and a single band in an extract of L. infantum promastigotes with the expected MW (~18.6 kDa, [web.expasy.org/protparam]) (Fig. 1c). […] The reverse reaction, which generates R5P, seems to be favoured, with both enzymes presenting lower Km values and higher vmax and kcat.

Protein	Km	Vmax	kcat
LmRPIB (Leishmania major) (protein) MSKRVALGCDHAAYAAHREIMDMISASGAVSKVMYMGPSSDTSVDYPDYAAQVCEAILKGEADAGILVCGTGIGMSIAANKFRGIRAALCYDHVTAQLSRQHNNAHILCIGVRTSGMEIIRDIITTFLTTEPLAEGRHSNRVDKITVIEEEQMKDEQRCCFSGCGGRKEEGK	3010 ± 540 µM	1040 µM/min	128 ± 7.33 s⁻¹
LiRPIB (Leishmania infantum) (protein) MPKRVALGCDHAAYATHQEIMDMVNASGAASKVMYMGPSSDTSVDYPDYAAQVCEAILKGEADTGILVCGTGIGMSIAANKFRGIRAALCYDHVTAQLSRQHNNAHILCIGVRTSGMEVIRDIIETFLTTEPLAEGRHGNRVDKITVIEEEQMKDEQRWCFSGCGGLKEEGK	2820 ± 300 µM	930 µM/min	115 ± 3.86 s⁻¹
